# T1: human HMGB1 protein (human, UniProt P09429 1-215)
# T1 construct: Non-denatured protein, used as analyte in SPR and added to neurons in the MARCKS phosphorylation assay; also called High Mobility Group Box 1
# T1 sequence (looked up): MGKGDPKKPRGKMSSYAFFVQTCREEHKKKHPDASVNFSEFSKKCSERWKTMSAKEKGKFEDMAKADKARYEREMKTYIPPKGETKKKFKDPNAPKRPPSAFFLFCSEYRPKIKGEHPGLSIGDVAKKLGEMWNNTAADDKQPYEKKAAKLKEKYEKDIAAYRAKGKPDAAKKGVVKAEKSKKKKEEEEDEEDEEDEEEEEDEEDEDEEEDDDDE
# Biological target: T1, human HMGB1 protein
# Experiment: SPR, Biacore T100, antibody immobilized on the chip, human HMGB1 as analyte
# Procedure: The interaction between the human monoclonal antibody group of the present invention and human HMGB1 protein was compared and examined using SPR. Specifically, using a sensor chip on which each human monoclonal antibody of the present invention was immobilized and human HMGB1 protein as an analyte, the interaction was measured over time with a surface plasmon resonance sensor (“Biacore T100”, manufactured by GE healthcare), to calculate an equilibrium dissociation constant (KD value) as an index of the antibody affinity.
binder,measurement,value
"monoclonal antibody #127 (antibody, human IgG1, kappa, V domains shown, Human IgG from the ADLib system (DT40 cell library); kappa light chain) VH: not shown VL: DIQMTQSPSSLSASVGDRVTITCRASQSVSSYLAWYQQKPGKAPKLLIYEASNLQAGVPSRFSGSGSGTDFTLTINSLQPEDFATYYCLQHNSNPLTFGQGTKLEIKT",Kd,0.0217 nM
"monoclonal antibody #213-001 (antibody, human IgG1, kappa, V domains shown, Human IgG from the ADLib system; kappa light chain) VH: EVQLVQSGAEVKKPGSSVKVSCKASGGTFSSYAISWVRQAPGQGLEWMGGIIPIFGRANYAQKFQGRVTITADESTSTAYMELSSLRSEDTAVYYCASLVTDYWGQGTLVTVSS VL: DIQMTQSPSSLSASTGDRVTITCRASQGISSYLAWYQQKPGKAPKLLIYAASTLQSGVPSRFSGSGSGTDFTLTISSLQPEDFATYYCQQANSFPITFGQGTRLEIKT",Kd,5.54 nM

# — US20230038521A1 (INSTITUTE OF SCIENCE TOKYO, published 2023)
